From patent US20080267971A1 (published 2008)

Tests used:
human Angiopoietin-1 = molecular target: T1, human Angiopoietin-1 (human, UniProt Q15389 20-498, limits assumed); assay: Biacore, mAb captured
T1 construct: Bought recombinant protein (R&D Systems 293-AN-025/CF) or supernatant of transfected 293F cells; also called Ang-1; recombinant Ang-1
T1 sequence: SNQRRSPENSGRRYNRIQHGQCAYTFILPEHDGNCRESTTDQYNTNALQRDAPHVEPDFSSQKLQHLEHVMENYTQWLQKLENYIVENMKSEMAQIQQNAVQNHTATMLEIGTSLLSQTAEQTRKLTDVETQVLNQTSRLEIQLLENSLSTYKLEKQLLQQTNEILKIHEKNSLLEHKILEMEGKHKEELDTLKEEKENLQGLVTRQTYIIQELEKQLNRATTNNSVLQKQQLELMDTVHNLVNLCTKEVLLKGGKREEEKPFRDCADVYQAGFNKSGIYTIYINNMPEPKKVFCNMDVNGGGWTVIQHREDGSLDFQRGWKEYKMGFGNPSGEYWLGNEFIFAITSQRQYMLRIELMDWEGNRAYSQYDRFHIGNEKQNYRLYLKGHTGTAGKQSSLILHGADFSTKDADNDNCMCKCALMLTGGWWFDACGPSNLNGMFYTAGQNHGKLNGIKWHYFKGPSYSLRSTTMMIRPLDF

human Angiopoietin-2 [1] = molecular target: T2, human Angiopoietin-2 (human, UniProt O15123 19-496); assay: high resolution Biacore, mAb immobilized, 2nd experiment
T2 construct: Mostly bought recombinant protein (R&D Systems 623-AM/CF, 623-AN; biotinylated BT623) or supernatant of transfected 293F cells; also called Ang-2; rhAng-2
T2 sequence: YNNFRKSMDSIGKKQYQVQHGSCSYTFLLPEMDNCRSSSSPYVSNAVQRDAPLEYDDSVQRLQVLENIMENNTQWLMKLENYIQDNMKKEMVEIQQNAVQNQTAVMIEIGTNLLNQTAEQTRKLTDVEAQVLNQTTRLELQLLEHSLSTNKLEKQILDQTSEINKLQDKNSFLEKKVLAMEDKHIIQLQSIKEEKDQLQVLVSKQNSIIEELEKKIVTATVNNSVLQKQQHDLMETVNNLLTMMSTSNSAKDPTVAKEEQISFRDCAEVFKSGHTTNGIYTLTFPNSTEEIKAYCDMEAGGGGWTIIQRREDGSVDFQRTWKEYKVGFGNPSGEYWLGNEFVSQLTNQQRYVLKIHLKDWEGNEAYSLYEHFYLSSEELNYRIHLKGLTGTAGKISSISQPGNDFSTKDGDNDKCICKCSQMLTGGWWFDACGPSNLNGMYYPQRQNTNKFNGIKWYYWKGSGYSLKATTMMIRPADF
Experimental: (§1) The mAb was then immobilized on flow cells 1-3 (CM5 Biacore chip) using routine amine coupling, leaving flow cell 4 as the reference flow cell.
(§2) The antibody surfaces were regenerated with a 6-second pulse of 15 mM NaOH after each injection cycle.
(§3) The sample injections alternated with three blank injection cycles. Each surface was regenerated with a 6-second pulse of 15 mM NaOH after each long off-rate injection cycle.

human Angiopoietin-2 [2] = molecular target: T2, human Angiopoietin-2; assay: high resolution Biacore, 1st experiment; kd held constant (*)
Experimental: as §1, §2, §3

human Angiopoietin-2 [3] = molecular target: T2, human Angiopoietin-2; assay: competition ELISA: binding of recombinant human Ang-2 to coated human Tie2/Fc, mAb 3.19.3 titrated, bound Ang-2 detected with polyclonal anti-Ang-2
Experimental: (§4) For this purpose, an ELISA plate was coated with 4 μg/ml of hTie2/Fc (R&D Systems, Inc.) at 100 μl/well, and the wells were blocked as routine at 4° C. overnight.
(§5) Each concentration of the mAb was tested in triplicate. […] OD650 was determined 30 min after the HRP substrate was added.

mouse Angiopoietin-2 = molecular target: T3, mouse Angiopoietin-2 (mouse, UniProt O35608 19-496); assay: competition ELISA: binding of mouse Ang-2 (culture supernatant) to coated human Tie2/Fc, mAb 3.19.3 titrated, bound Ang-2 detected with polyclonal anti-Ang-2
T3 construct: Used as conditioned medium of transfectants; also called mAng-2; mouse Ang-2
T3 sequence: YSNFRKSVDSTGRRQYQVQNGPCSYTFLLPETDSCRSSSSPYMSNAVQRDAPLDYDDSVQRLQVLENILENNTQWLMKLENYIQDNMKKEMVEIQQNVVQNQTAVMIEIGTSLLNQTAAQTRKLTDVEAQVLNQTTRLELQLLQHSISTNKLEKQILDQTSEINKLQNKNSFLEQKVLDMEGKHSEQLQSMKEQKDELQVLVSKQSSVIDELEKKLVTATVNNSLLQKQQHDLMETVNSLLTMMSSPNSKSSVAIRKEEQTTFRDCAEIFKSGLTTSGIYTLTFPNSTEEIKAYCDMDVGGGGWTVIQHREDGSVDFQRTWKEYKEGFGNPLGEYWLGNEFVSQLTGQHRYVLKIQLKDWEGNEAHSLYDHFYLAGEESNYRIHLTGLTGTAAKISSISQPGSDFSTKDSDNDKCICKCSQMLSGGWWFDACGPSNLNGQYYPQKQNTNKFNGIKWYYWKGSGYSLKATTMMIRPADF
Experimental: as §4, §5

human Angiopoietin-2 [4] = molecular target: T2, human Angiopoietin-2; assay: FACS: inhibition of Ang-2 binding to HEK293F/Tie2 cells
Experimental: Cell suspension of 4 million cells/mL in FACS Buffer were prepared, and then aliquoted to a 96-well polypropylene plate with 50 ul per well. […] Cells were washed by centrifuging the plate at 1,200 rpm for 5 minutes, removing the supernatant by aspirating, and resuspending the cells with 200 ul per well of FACS Buffer. Washing procedures were repeated twice. The cells were then suspended with 100 ul of mouse Anti-6×-Histidine antibody diluted to 2 ug/ml in FACS Buffer, and incubated at room temperature for 30 minutes. After washing, the cells were suspended in 100 ul of PE-conjugated goat anti-mouse-IgG, which was diluted 1:100 in FACS Buffer, for incubation at room temperature for 30 minutes. The volume of the samples were brought to 300 ul with FACS Buffer, and measured with FACS Calibur.

human Angiopoietin-2 [5] = molecular target: T2, human Angiopoietin-2; assay: high resolution Biacore, 2nd experiment; kd held constant (*)
Experimental: as §1, §2, §3

human Angiopoietin-2 [6] = molecular target: T2, human Angiopoietin-2; assay: Biacore, mAb immobilized, 8 h dissociation

B1: mAb 3.3.2 (antibody, V domains shown)
VH: EVQLVESGGGLVQPGGSLRLSCAVSGFTFSSYWMSWVRQAPGKGLEWVANIKQDGSEKYYVDSVKGRFTISRDNAKNSLYLQMNSLRAEDTAVYYCARDQGIAVAGPFDYWGQGTLVTVSS
VL: EIVMTQSPATLSVSPGERATLSCRASQTVSSDLAWYQQKPGQAPRLLIYGASIRATGIPARFSGSGSGTEFTLTISSLQSEDFAVYSCQQYYNWWTFGQGTKVEIKR
notes: Human hybridoma IgG (XenoMouse); also called 3.3.1; x3.3
B1: no binding (tested: 87.4 nM Ang-1) (human Angiopoietin-1).

B2: mAb 3.19.3 (antibody, V domains shown)
VH: QVQLVESGGGVVQPGRSLRLSCAASGFTFTNYGMHWGRQAPGKGLEWVAVISHDGNNKYYVDSVKGRFTISRDNSKNTLYLQMNSLRAEDTAVYYCAREGIDFWSGLNWFDPWGQGTLVTVSS
VL: EIVLTQSPGTLSLSPGERATLSCRASQSITGSYLAWYQQKPGQAPRLLICGASSWATGIPDRFSGSGSGTDFTLTISRLEPEDFAVYYCQQYSSSPITFGQGTRLEIKR
notes: Human hybridoma IgG (XenoMouse); also called x3.19
For B2, the Kd (human Angiopoietin-2 [1]) was 5.6 pM, the kon (human Angiopoietin-2 [1]) was 178000 M⁻¹ s⁻¹ and the koff (human Angiopoietin-2 [2]) was ~1e-06 s⁻¹. The “IC50 (read off the curve)” value (human Angiopoietin-2 [3]) was ~0.8 µg/mL, the “IC50 (read off the curve)” value (mouse Angiopoietin-2) was ~2 µg/mL and the EC50 (human Angiopoietin-2 [4]) was 731 pM. For the same binder, the koff (human Angiopoietin-2 [5]) was ~1e-06 s⁻¹.

B3: mAb 5.35.1 (antibody, V domains shown)
VH: EVQLVESGGGVVRPGGSLRLSCTTSGFTFDDYGMSWVRQAPGKGLEWVSGINWNGGSTVYADSVKGRFTISRDSAKNSLYLQMNSLRAEDTALYHCARNKQWLWYFDLWGRGTLVTVSS
VL: EIVMTQSPATLSVSPGERATLSCRASQSVSSNLAWYQQKPGQAPRLLIYGASTRATGIPARFSGSGSGTEFTLTISSLQSEDFAVYYCEQYNNWPLTFGGGTKVEIKR
notes: Human hybridoma IgG (XenoMouse); also called x5.35
B3 was tested, and the Kd (human Angiopoietin-2 [6]) was 3.31 pM, the koff (human Angiopoietin-2 [6]) was 1.87e-06 s⁻¹ and the kon (human Angiopoietin-2 [6]) was 564000 M⁻¹ s⁻¹.
